{"source": "the RNAGym collection of RNA variant scans (doi:10.7554/elife.80360)", "parents": {"B1": {"name": "Twister Ribozyme (parent)", "chain": "AACACUGCCAAUGCCGGUCCCAAGCCCGGAUAAAAGUGGAGGGGGCGG"}}, "data": [{"variants_of": "B1", "test": "self-cleavage, relative activity (ratio to wild type); higher = more cleavage; co-transcriptional", "values": [{"variant": "A22G C46U", "self-cleavage": 0.286}, {"variant": "A22G A34G", "self-cleavage": 0.0987}, {"variant": "A22G A34U", "self-cleavage": 0.096}, {"variant": "A23U C25G", "self-cleavage": 0.0583}, {"variant": "C21U A33G", "self-cleavage": 0.146}, {"variant": "C21U G39C", "self-cleavage": 0.114}, {"variant": "C21U G39U", "self-cleavage": 0.0656}, {"variant": "G24A G39U", "self-cleavage": 0.0747}, {"variant": "G24A G39A", "self-cleavage": 0.106}, {"variant": "A23C C26U", "self-cleavage": 0.0813}, {"variant": "G24A C27U", "self-cleavage": 0.106}, {"variant": "C21G C27U", "self-cleavage": 0.0651}, {"variant": "C21G C27G", "self-cleavage": 0.138}, {"variant": "A23G G43A", "self-cleavage": 0.0981}, {"variant": "A23G G43U", "self-cleavage": 0.0895}, {"variant": "G24A G38U", "self-cleavage": 0.126}, {"variant": "A23U C26A", "self-cleavage": 0.234}, {"variant": "A23U C26U", "self-cleavage": 0.153}, {"variant": "A22G C25U", "self-cleavage": 0.131}, {"variant": "A22U G47A", "self-cleavage": 0.582}, {"variant": "A22U G47C", "self-cleavage": 0.216}, {"variant": "A22U A34G", "self-cleavage": 0.535}, {"variant": "A22C G39U", "self-cleavage": 0.111}, {"variant": "A22C G39C", "self-cleavage": 0.161}, {"variant": "C21U A30G", "self-cleavage": 0.097}, {"variant": "G24C C26G", "self-cleavage": 0.0413}, {"variant": "A23C C27A", "self-cleavage": 0.0984}, {"variant": "A23C C27G", "self-cleavage": 0.0848}, {"variant": "A22C G44A", "self-cleavage": 0.914}, {"variant": "A22C A33C", "self-cleavage": 0.955}, {"variant": "A22C A33U", "self-cleavage": 0.983}, {"variant": "A22U C46U", "self-cleavage": 0.773}, {"variant": "C21U A34C", "self-cleavage": 0.0844}, {"variant": "A23G G48C", "self-cleavage": 0.516}, {"variant": "A23G G48A", "self-cleavage": 0.327}, {"variant": "A23G G48U", "self-cleavage": 0.354}, {"variant": "A22U A23G", "self-cleavage": 0.0873}, {"variant": "C21U C25A", "self-cleavage": 0.061}, {"variant": "C21U C25G", "self-cleavage": 0.0992}, {"variant": "A22C C26A", "self-cleavage": 0.46}, {"variant": "C21U G24U", "self-cleavage": 0.106}, {"variant": "C21U G24C", "self-cleavage": 0.0925}, {"variant": "A22U G24A", "self-cleavage": 0.0776}, {"variant": "G24A G47C", "self-cleavage": 0.11}, {"variant": "G24A C25G", "self-cleavage": 0.0958}, {"variant": "A22U G48A", "self-cleavage": 0.666}, {"variant": "A22U G48C", "self-cleavage": 0.954}, {"variant": "A22U G48U", "self-cleavage": 0.911}, {"variant": "C21G G47C", "self-cleavage": 0.0639}, {"variant": "A23C G48C", "self-cleavage": 0.211}, {"variant": "A22G G42U", "self-cleavage": 0.0653}, {"variant": "A22C U37C", "self-cleavage": 0.624}, {"variant": "A22G U37A", "self-cleavage": 0.152}, {"variant": "A22G U37G", "self-cleavage": 0.0844}, {"variant": "A22G A35G", "self-cleavage": 0.138}, {"variant": "G24A A33G", "self-cleavage": 0.097}, {"variant": "G24A A33C", "self-cleavage": 0.0756}, {"variant": "A23G A30G", "self-cleavage": 0.647}, {"variant": "A23G A30U", "self-cleavage": 0.587}, {"variant": "A22U A30U", "self-cleavage": 0.999}, {"variant": "A22U A30G", "self-cleavage": 0.783}, {"variant": "G24C G44A", "self-cleavage": 0.0864}, {"variant": "G24C G44C", "self-cleavage": 0.0955}, {"variant": "G24C G36U", "self-cleavage": 0.0983}, {"variant": "A22U A35G", "self-cleavage": 0.583}, {"variant": "A23G G44C", "self-cleavage": 0.508}, {"variant": "A23C A33C", "self-cleavage": 0.0964}, {"variant": "A23C A33U", "self-cleavage": 0.13}, {"variant": "A23C A33G", "self-cleavage": 0.0917}, {"variant": "A22U G43C", "self-cleavage": 0.129}, {"variant": "G24C A40U", "self-cleavage": 0.0978}, {"variant": "C21G C26A", "self-cleavage": 0.0789}, {"variant": "C21G C26U", "self-cleavage": 0.0515}, {"variant": "A23C G47A", "self-cleavage": 0.127}, {"variant": "A23C G47U", "self-cleavage": 0.145}, {"variant": "A22G G39C", "self-cleavage": 0.0779}, {"variant": "G24A G44A", "self-cleavage": 0.101}, {"variant": "G24A G44C", "self-cleavage": 0.0736}, {"variant": "A22U C27U", "self-cleavage": 0.692}, {"variant": "A22U C27G", "self-cleavage": 0.0668}, {"variant": "G24A G48U", "self-cleavage": 0.0761}, {"variant": "G24A G48C", "self-cleavage": 0.112}, {"variant": "G24A G48A", "self-cleavage": 0.121}, {"variant": "A22U G44C", "self-cleavage": 0.836}, {"variant": "A22U G44U", "self-cleavage": 0.812}, {"variant": "C21G A40U", "self-cleavage": 0.129}, {"variant": "A22G C26G", "self-cleavage": 0.0488}, {"variant": "A22G C26A", "self-cleavage": 0.0908}, {"variant": "G24A G41C", "self-cleavage": 0.0854}, {"variant": "G24A G41U", "self-cleavage": 0.082}, {"variant": "A23U A40C", "self-cleavage": 0.103}, {"variant": "A22G G24C", "self-cleavage": 0.0998}, {"variant": "A23G C25G", "self-cleavage": 0.0343}, {"variant": "A22G G45U", "self-cleavage": 0.143}, {"variant": "A22G G45A", "self-cleavage": 0.277}, {"variant": "C21U G28U", "self-cleavage": 0.102}, {"variant": "C21U G44U", "self-cleavage": 0.0882}, {"variant": "A23G G28U", "self-cleavage": 0.184}, {"variant": "A23G G28C", "self-cleavage": 0.246}, {"variant": "A23G G45C", "self-cleavage": 0.181}, {"variant": "A23G G45U", "self-cleavage": 0.158}, {"variant": "A22U G28U", "self-cleavage": 0.736}, {"variant": "A22U G28A", "self-cleavage": 0.485}, {"variant": "A23U U31A", "self-cleavage": 0.502}, {"variant": "A23U U31C", "self-cleavage": 0.682}, {"variant": "A22U A40U", "self-cleavage": 0.128}, {"variant": "C21G G29A", "self-cleavage": 0.0338}, {"variant": "G24A G45A", "self-cleavage": 0.122}, {"variant": "A23U G29U", "self-cleavage": 0.315}, {"variant": "A23U G29C", "self-cleavage": 0.0484}, {"variant": "A23U G29A", "self-cleavage": 0.285}, {"variant": "A23G G47U", "self-cleavage": 0.17}, {"variant": "G24A C46G", "self-cleavage": 0.0598}, {"variant": "A22C G41A", "self-cleavage": 0.326}, {"variant": "A22C G41U", "self-cleavage": 0.366}, {"variant": "A22G G36A", "self-cleavage": 0.0781}, {"variant": "A22G G36U", "self-cleavage": 0.105}, {"variant": "C21U A40G", "self-cleavage": 0.0774}, {"variant": "C21U A40U", "self-cleavage": 0.0831}, {"variant": "C21U A40C", "self-cleavage": 0.109}, {"variant": "A23C G39U", "self-cleavage": 0.0921}, {"variant": "A23C G38C", "self-cleavage": 0.219}, {"variant": "G24A A34G", "self-cleavage": 0.0576}, {"variant": "A23U G45A", "self-cleavage": 0.391}, {"variant": "G24A C26A", "self-cleavage": 0.123}, {"variant": "G24A C26G", "self-cleavage": 0.0568}, {"variant": "C21U A35C", "self-cleavage": 0.154}, {"variant": "C21U A35G", "self-cleavage": 0.108}, {"variant": "A22C G29C", "self-cleavage": 0.929}, {"variant": "G24A A35G", "self-cleavage": 0.0812}, {"variant": "G24A G28A", "self-cleavage": 0.0708}, {"variant": "C21G U31G", "self-cleavage": 0.0712}, {"variant": "C21G G36C", "self-cleavage": 0.0148}, {"variant": "A22U G45A", "self-cleavage": 0.678}, {"variant": "A23C G24C", "self-cleavage": 0.124}, {"variant": "A23U A34G", "self-cleavage": 0.0731}, {"variant": "A23U A34C", "self-cleavage": 0.0966}, {"variant": "C21U G42C", "self-cleavage": 0.118}, {"variant": "A23G G36C", "self-cleavage": 0.0979}, {"variant": "A22U U31C", "self-cleavage": 0.935}, {"variant": "A22U G41C", "self-cleavage": 0.142}, {"variant": "A22U G41A", "self-cleavage": 0.102}, {"variant": "A22C G45A", "self-cleavage": 0.927}, {"variant": "G24C A35C", "self-cleavage": 0.0752}, {"variant": "A22C C46A", "self-cleavage": 1.02}, {"variant": "A22C C46G", "self-cleavage": 0.869}, {"variant": "A22C C46U", "self-cleavage": 0.832}, {"variant": "A23C C46A", "self-cleavage": 0.164}, {"variant": "G24A A32C", "self-cleavage": 0.0703}, {"variant": "A22U C25U", "self-cleavage": 0.513}, {"variant": "A22G G41A", "self-cleavage": 0.0888}, {"variant": "A22G G41U", "self-cleavage": 0.119}, {"variant": "A23C G45C", "self-cleavage": 0.125}, {"variant": "C21U G29U", "self-cleavage": 0.0831}, {"variant": "G24C C46G", "self-cleavage": 0.105}, {"variant": "G24C C46U", "self-cleavage": 0.126}, {"variant": "G24A G29C", "self-cleavage": 0.0767}, {"variant": "A22G U31A", "self-cleavage": 0.196}, {"variant": "A22G U31C", "self-cleavage": 0.304}, {"variant": "A22G A23G", "self-cleavage": 0.0844}, {"variant": "G24A G42A", "self-cleavage": 0.0855}, {"variant": "C21G C25U", "self-cleavage": 0.0625}, {"variant": "C21G C25G", "self-cleavage": 0.0701}, {"variant": "G24C G42A", "self-cleavage": 0.105}, {"variant": "G24C G42C", "self-cleavage": 0.0931}, {"variant": "G24C G42U", "self-cleavage": 0.0759}, {"variant": "A23G G42C", "self-cleavage": 0.176}]}]}
